Tests used:
[1] = molecular target: T1, ALK6; test: solid-phase binding assay, ALK6 at 100 nM, FL ECD against ΔIg2 (FIG. 7)
T1 construct: Soluble ALK6 titrated at 3.125-100 nM over immobilized MuSK constructs; That is inferred from the anti-human IgG Fc detection antibody; also called BMPR1b; BMPR1B

[2] = molecular target: T1, ALK6; test: solid-phase binding assay, half max as printed (FIG. 9)

T1 sequence (O00238 whole entry, the tested form may be a part): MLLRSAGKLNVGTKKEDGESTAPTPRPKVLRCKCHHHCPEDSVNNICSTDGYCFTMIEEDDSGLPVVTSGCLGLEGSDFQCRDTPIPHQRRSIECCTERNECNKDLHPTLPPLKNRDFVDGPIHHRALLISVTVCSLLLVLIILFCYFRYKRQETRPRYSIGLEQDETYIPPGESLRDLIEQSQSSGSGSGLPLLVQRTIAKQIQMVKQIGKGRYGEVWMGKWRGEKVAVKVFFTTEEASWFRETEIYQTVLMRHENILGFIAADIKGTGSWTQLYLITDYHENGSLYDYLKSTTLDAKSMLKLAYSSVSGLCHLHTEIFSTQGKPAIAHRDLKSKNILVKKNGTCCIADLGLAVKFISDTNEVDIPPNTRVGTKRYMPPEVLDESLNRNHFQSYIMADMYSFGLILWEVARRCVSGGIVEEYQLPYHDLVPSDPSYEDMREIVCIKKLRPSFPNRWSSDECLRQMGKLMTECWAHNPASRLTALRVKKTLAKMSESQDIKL

fold increase in absorbance against ΔIg2 MuSK [1]: 6.6 fold
EC50 [2]: ~0.5 nM
B1: full-length ectodomain (FL ECD) of MuSK, His-tagged (receptor)
chain: EKLPKAPVITTPLETVDALVEEVATFMCAVESYPQPEISWTRNKILIKLFDTRYSIRENGQLLTILSVEDSDDGIYCCTANNGVGGAVESCGALQVKMKPKITRPPINVKIIEGLKAVLPCTTMGNPKPSVSWIKGDSALRENSRIAVLESGSLRIHNVQKEDAGQYRCVAKNSLGTAYSKLVKLEVEVFARILRAPESHNVTFGSFVTLRCTAIGMPVPTISWIENGNAVSSGSIQENVKDRVIDSRLQLFITKPGLYTCIATNKHGEKFSTAKAAATVSIAEWSKSQKESKGYCAQYRGEVCDAVLVKDSLVFFNTSYPDPEEAQELLIHTAWNELKAVSPLCRPAAEALLCNHLFQECSPGVLPTPMPICREYCLAVKELFCAKEWLAMEGKTHRGLYRSGMHFLPVPECSKLPSMHQDPTACTRLPYLDYKKENITTFPSITSSKPSVDIPNLPASTSSFAVSPAYSMT
